In the supplement of paper PMC9112550, “Optimization of the antimicrobial peptide Bac7 by deep mutational scanning” (BMC Biology, 2022):

Tested on: Escherichia coli TOP10
Experiment: shrunken log2 fold change of peptide-encoding DNA abundance (4.5 h post-induction vs induction); higher = less antimicrobial activity (less host growth inhibition)
Conditions: time post-induction: 4.5 h; library: site-saturation at positions 5, 18, 19, 20
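Also: peptides expressed intracellularly from a pBAD plasmid library in pooled LB shake-flask culture, induced with 0.3% L-arabinose, DNA abundance read by NGS, three biological replicates, DESeq2 with apeglm shrinkage.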

Row | Sequence | shrunken log2 fold change
1 | RRIRGRPPRLPRPRPRPTECPRP | 0.267
2 | RRIRFRPPRLPRPRPRPYNCPRP | -0.768
3 | RRIRIRPPRLPRPRPRPLRGPRP | 0.694
4 | RRIRWRPPRLPRPRPRPGTYPRP | -0.127
5 | RRIRLRPPRLPRPRPRPPQEPRP | 0.0145
6 | RRIRIRPPRLPRPRPRPRDSPRP | -0.346
7 | RRIRKRPPRLPRPRPRPAFTPRP | 0.021
8 | RRIRYRPPRLPRPRPRPKALPRP | 0.178
9 | RRIRIRPPRLPRPRPRPLEGPRP | -0.0524
10 | RRIRMRPPRLPRPRPRPTGRPRP | 1.24
11 | RRIRIRPPRLPRPRPRPGIIPRP | -0.0859
12 | RRIRERPPRLPRPRPRPERYPRP | -0.162
13 | RRIRGRPPRLPRPRPRPTKQPRP | 0.169
14 | RRIRERPPRLPRPRPRPTHHPRP | -0.0607
15 | RRIRFRPPRLPRPRPRPGKDPRP | -0.105
16 | RRIRTRPPRLPRPRPRPWCMPRP | -0.0742
17 | RRIRDRPPRLPRPRPRPYWWPRP | 0.021
18 | RRIRSRPPRLPRPRPRPDRVPRP | -0.144
19 | RRIRIRPPRLPRPRPRPSTEPRP | -0.388
20 | RRIRWRPPRLPRPRPRPIVQPRP | 0.0969
21 | RRIRNRPPRLPRPRPRPAFQPRP | -0.0462
22 | RRIRLRPPRLPRPRPRPPYVPRP | -0.0415
23 | RRIRFRPPRLPRPRPRPATRPRP | 0.193
24 | RRIRCRPPRLPRPRPRPPQQPRP | 0.549
25 | RRIRHRPPRLPRPRPRPHTYPRP | -0.79

Row | Sequence | shrunken log2 fold change
26 | RRIRGRPPRLPRPRPRPTGAPRP | 1.31
27 | RRIRDRPPRLPRPRPRPHRVPRP | -0.0141
28 | RRIRIRPPRLPRPRPRPQEQPRP | -0.0376
29 | RRIRDRPPRLPRPRPRPRYSPRP | -0.662
30 | RRIRARPPRLPRPRPRPDQSPRP | 0.113
31 | RRIRFRPPRLPRPRPRPFWMPRP | -0.254
32 | RRIRVRPPRLPRPRPRPLCLPRP | -0.376
33 | RRIRYRPPRLPRPRPRPGAFPRP | -0.805
34 | RRIRSRPPRLPRPRPRPPGAPRP | 0.61
35 | RRIRARPPRLPRPRPRPIYNPRP | -0.668
36 | RRIRGRPPRLPRPRPRPTFTPRP | 0.638
37 | RRIRNRPPRLPRPRPRPFEPPRP | -0.181
38 | RRIRERPPRLPRPRPRPNGFPRP | 0.0354
39 | RRIRNRPPRLPRPRPRPDQGPRP | -0.257
40 | RRIRQRPPRLPRPRPRPIICPRP | 0.0208
41 | RRIRKRPPRLPRPRPRPAGYPRP | 0.0743
42 | RRIRCRPPRLPRPRPRPRSFPRP | -0.342
43 | RRIRCRPPRLPRPRPRPESKPRP | 0.198
44 | RRIRCRPPRLPRPRPRPQFEPRP | 0.000801
45 | RRIRKRPPRLPRPRPRPIYGPRP | -0.00172
46 | RRIRRRPPRLPRPRPRPGLIPRP | 0.238
47 | RRIRIRPPRLPRPRPRPAVVPRP | -0.0892
48 | RRIRWRPPRLPRPRPRPGWQPRP | 0.0857
49 | RRIRMRPPRLPRPRPRPLALPRP | 0.0404
50 | RRIRDRPPRLPRPRPRPWMQPRP | -0.0999

Row | Sequence | shrunken log2 fold change
51 | RRIRMRPPRLPRPRPRPAYCPRP | 0.075
52 | RRIRVRPPRLPRPRPRPKYHPRP | -0.373
53 | RRIRLRPPRLPRPRPRPNLWPRP | 0.321
54 | RRIRARPPRLPRPRPRPFIQPRP | 0.0556
55 | RRIRHRPPRLPRPRPRPRELPRP | 0.234
56 | RRIRGRPPRLPRPRPRPKYCPRP | 0.203
57 | RRIRVRPPRLPRPRPRPHKIPRP | -0.53
58 | RRIRDRPPRLPRPRPRPDKFPRP | 0.0288
59 | RRIRLRPPRLPRPRPRPMKVPRP | -0.00674
60 | RRIRYRPPRLPRPRPRPKDHPRP | -0.487
61 | RRIRTRPPRLPRPRPRPQRFPRP | 0.00548
62 | RRIRNRPPRLPRPRPRPMCVPRP | -0.166
63 | RRIRARPPRLPRPRPRPRVPPRP | 0.428
64 | RRIRWRPPRLPRPRPRPDYWPRP | 0.122
65 | RRIRTRPPRLPRPRPRPELDPRP | 0.641
66 | RRIRARPPRLPRPRPRPADEPRP | 0.678
67 | RRIRCRPPRLPRPRPRPDSRPRP | 0.0735
68 | RRIRMRPPRLPRPRPRPMRIPRP | 0.355
69 | RRIRVRPPRLPRPRPRPCFVPRP | -0.253
70 | RRIRRRPPRLPRPRPRPLPCPRP | -0.0345
71 | RRIRSRPPRLPRPRPRPTACPRP | 0.249
72 | RRIRGRPPRLPRPRPRPCNVPRP | -0.037
73 | RRIRFRPPRLPRPRPRPKGMPRP | -0.243
74 | RRIRGRPPRLPRPRPRPFYSPRP | -0.00304
75 | RRIRWRPPRLPRPRPRPNSYPRP | -0.197

Row | Sequence | shrunken log2 fold change
76 | RRIRRRPPRLPRPRPRPPLWPRP | 0.883
77 | RRIRSRPPRLPRPRPRPKIDPRP | -0.000854
78 | RRIRPRPPRLPRPRPRPTLLPRP | -0.0649
79 | RRIRGRPPRLPRPRPRPHKLPRP | 0.213
80 | RRIRFRPPRLPRPRPRPQSHPRP | -0.243
81 | RRIRPRPPRLPRPRPRPSKHPRP | -0.441
82 | RRIRWRPPRLPRPRPRPPHFPRP | 0.701
83 | RRIRARPPRLPRPRPRPLVTPRP | 0.178
84 | RRIRTRPPRLPRPRPRPHPAPRP | 0.201
85 | RRIRQRPPRLPRPRPRPAICPRP | -0.0709
86 | RRIRTRPPRLPRPRPRPHGLPRP | -0.034
87 | RRIRERPPRLPRPRPRPVTVPRP | -0.0984
88 | RRIRFRPPRLPRPRPRPHVFPRP | -0.136
89 | RRIRYRPPRLPRPRPRPSMWPRP | -1.68
90 | RRIRNRPPRLPRPRPRPRMRPRP | 0.867
91 | RRIRSRPPRLPRPRPRPNIKPRP | -0.491
92 | RRIRQRPPRLPRPRPRPINLPRP | -0.123
93 | RRIRHRPPRLPRPRPRPLAFPRP | -0.2
94 | RRIRQRPPRLPRPRPRPTVLPRP | -0.0201
95 | RRIRARPPRLPRPRPRPTMGPRP | 0.469
96 | RRIRKRPPRLPRPRPRPFGNPRP | -0.171
97 | RRIRVRPPRLPRPRPRPCACPRP | 0.0537
98 | RRIRKRPPRLPRPRPRPRSHPRP | 0.38
99 | RRIRTRPPRLPRPRPRPMRFPRP | 0.00408
100 | RRIRFRPPRLPRPRPRPCFAPRP | 0.153

Row | Sequence | shrunken log2 fold change
101 | RRIRHRPPRLPRPRPRPQHEPRP | -0.191
102 | RRIRWRPPRLPRPRPRPCHDPRP | 0.0415
103 | RRIRIRPPRLPRPRPRPPDLPRP | -0.00973
104 | RRIRVRPPRLPRPRPRPNLFPRP | -0.355
105 | RRIRKRPPRLPRPRPRPINAPRP | 0.088
106 | RRIRVRPPRLPRPRPRPEDTPRP | 0.106
107 | RRIRPRPPRLPRPRPRPAMEPRP | 0.226
108 | RRIRCRPPRLPRPRPRPGASPRP | 0.519
109 | RRIRKRPPRLPRPRPRPPPWPRP | 1.03
110 | RRIRCRPPRLPRPRPRPWLPPRP | -0.122
111 | RRIRIRPPRLPRPRPRPVILPRP | -0.423
112 | RRIRTRPPRLPRPRPRPVFTPRP | -0.105
113 | RRIRCRPPRLPRPRPRPQVTPRP | -0.102
114 | RRIRWRPPRLPRPRPRPGPMPRP | 0.327
115 | RRIRKRPPRLPRPRPRPIQAPRP | -0.000921
116 | RRIRERPPRLPRPRPRPTQIPRP | 0.0737
117 | RRIRLRPPRLPRPRPRPNNIPRP | -0.559
118 | RRIRMRPPRLPRPRPRPDRGPRP | 0.367
119 | RRIRLRPPRLPRPRPRPTMWPRP | 0.145
120 | RRIRKRPPRLPRPRPRPCHFPRP | -0.0404
121 | RRIRKRPPRLPRPRPRPRVLPRP | 0.498
122 | RRIRFRPPRLPRPRPRPCWGPRP | 0.00445
123 | RRIRPRPPRLPRPRPRPHHPPRP | -0.224
124 | RRIRNRPPRLPRPRPRPSNHPRP | -0.603
125 | RRIRFRPPRLPRPRPRPKYDPRP | -0.606

Row | Sequence | shrunken log2 fold change
126 | RRIRVRPPRLPRPRPRPPMYPRP | -0.366
127 | RRIRERPPRLPRPRPRPDTEPRP | -0.0215
128 | RRIRWRPPRLPRPRPRPAAVPRP | 0.806
129 | RRIRARPPRLPRPRPRPPVNPRP | 0.36
130 | RRIRGRPPRLPRPRPRPTGFPRP | 1.23
131 | RRIRKRPPRLPRPRPRPMKEPRP | 0.0132
132 | RRIRTRPPRLPRPRPRPSAKPRP | 0.227
133 | RRIRWRPPRLPRPRPRPKYQPRP | -0.231
134 | RRIRLRPPRLPRPRPRPKELPRP | 0.0165
135 | RRIRVRPPRLPRPRPRPHPKPRP | 0.0188
136 | RRIRSRPPRLPRPRPRPKMEPRP | -0.0294
137 | RRIRHRPPRLPRPRPRPFMKPRP | -0.00214
138 | RRIRYRPPRLPRPRPRPYDHPRP | -0.474
139 | RRIRSRPPRLPRPRPRPPSVPRP | 0.279
140 | RRIRPRPPRLPRPRPRPHDAPRP | 0.0201
141 | RRIRSRPPRLPRPRPRPSRCPRP | -0.134
142 | RRIRMRPPRLPRPRPRPMAEPRP | 2.79
143 | RRIRPRPPRLPRPRPRPFWSPRP | -0.143
144 | RRIRFRPPRLPRPRPRPPIYPRP | -0.416
145 | RRIRHRPPRLPRPRPRPTTCPRP | -0.278
146 | RRIRIRPPRLPRPRPRPMPHPRP | -0.0728
147 | RRIRTRPPRLPRPRPRPVTWPRP | -0.0681
148 | RRIRPRPPRLPRPRPRPNRAPRP | 0.371
149 | RRIRLRPPRLPRPRPRPIEGPRP | 0.0046
150 | RRIRLRPPRLPRPRPRPWYFPRP | -0.231
